Target: human p75 neurotrophin receptor (p75NTR) expressed in CHO-K1 cells (human) (UniProt P08138)
Test: AP fusion protein on CHO-K1 cells expressing cell-surface human p75NTR, fluorescent AP substrate

Chain of human p75 neurotrophin receptor (p75NTR) expressed in CHO-K1 cells (human) (P08138 29-427): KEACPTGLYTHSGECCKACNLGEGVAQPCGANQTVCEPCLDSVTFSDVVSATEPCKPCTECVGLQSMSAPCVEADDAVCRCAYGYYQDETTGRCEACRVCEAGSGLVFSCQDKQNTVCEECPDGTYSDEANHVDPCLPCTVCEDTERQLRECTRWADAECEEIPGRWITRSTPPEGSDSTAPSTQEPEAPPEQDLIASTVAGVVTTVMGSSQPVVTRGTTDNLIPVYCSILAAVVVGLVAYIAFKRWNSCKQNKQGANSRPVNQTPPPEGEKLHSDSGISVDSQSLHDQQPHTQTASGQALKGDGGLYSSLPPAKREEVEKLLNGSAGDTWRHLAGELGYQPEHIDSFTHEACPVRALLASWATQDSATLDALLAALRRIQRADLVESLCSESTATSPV

fold bound against mock-transfected control cells: 5 fold
Substance: NgR-AP
